Test [1] deals with T1, recombinant human IP-10 (human, UniProt P02778 22-98).
T1 construct: Bought from R&D Systems; also called CXCL10; rhIP-10
T1 sequence: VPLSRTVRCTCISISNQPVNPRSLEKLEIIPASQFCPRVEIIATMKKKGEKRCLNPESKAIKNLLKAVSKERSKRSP
Briefly: Biacore 2000 (SPR).

The target of test [2] is T1, recombinant human IP-10. Briefly: Biacore 2000 (SPR), antibody captured by goat anti-human IgG Fc, human IP-10 injected. On the technique in general: In SPR one partner is held on a chip, and binding of the other changes the refractive index at the surface.
The target in test [3] is T1, recombinant human IP-10. The test is described as follows: competition ELISA on human IP-10, competitor: AIP13.
For test [4], the target named is T1, recombinant human IP-10. Briefly: cell-based or functional assay.
Test [5] concerns the target T1, recombinant human IP-10. The test is described as follows: competition ELISA on coated human IP-10, competitor: biotinylated MuAIP12; Exp. C. A general note: An ELISA detects its analyte on a solid surface through an enzyme-linked reagent.
For test [6], the target named is T1, recombinant human IP-10. Briefly: competition ELISA on coated human IP-10; Exp. D.
The target of test [7] is T1, recombinant human IP-10. Briefly: Biacore (Table 3).
The target of test [8] is T1, recombinant human IP-10. Briefly: competition ELISA on coated human IP-10, competitor: biotinylated MuAIP12; Exp. B.
The target in test [9] is T1, recombinant human IP-10. Briefly: competition ELISA on coated human IP-10; Exp. B.
The target of test [10] is T1, recombinant human IP-10. The test is described as follows: cell-based or functional assay. The source holds these as a separate data set.
In test [11] the target is T1, recombinant human IP-10. Briefly: competition ELISA on coated human IP-10; Exp. A.
The target of test [12] is T1, recombinant human IP-10. Briefly: competition ELISA on coated human IP-10; average.
The target of test [13] is T1, recombinant human IP-10. The test is described as follows: competition ELISA on coated human IP-10, competitor: biotinylated MuAIP12; average.
The target in test [14] is T1, recombinant human IP-10. Briefly: competition ELISA on coated human IP-10; Exp. C.
The target in test [15] is T1, recombinant human IP-10. The test is described as follows: Biacore (SPR).
Test [16] has as its target T1, recombinant human IP-10. Briefly: competition ELISA on coated human IP-10, competitor: biotinylated MuAIP12; Exp. A.
The target of test [17] is T1, recombinant human IP-10. The test is described as follows: competition ELISA on coated human IP-10, competitor: biotinylated MuAIP12; Exp. D.
Test [18] deals with T1, recombinant human IP-10. Briefly: competition ELISA on coated human IP-10, competitor: biotinylated MuAIP13; Exp. A.
Test [19] addresses T1, recombinant human IP-10. The test is described as follows: competition ELISA on coated human IP-10; average. The source holds these as a separate data set.
Test [20] has as its target T1, recombinant human IP-10. The test is described as follows: competition ELISA on coated human IP-10, competitor: biotinylated MuAIP13; average.
Test [21] deals with T1, recombinant human IP-10. The test is described as follows: competition ELISA on coated human IP-10; Exp. C. This is another data set of the same source.
In test [22] the target is T1, recombinant human IP-10. Briefly: competition ELISA on coated human IP-10; Exp. A. This is another data set of the same source.
Test [23] deals with T1, recombinant human IP-10. The test is described as follows: competition ELISA on coated human IP-10, competitor: biotinylated MuAIP13; Exp. B.
Test [24] deals with T1, recombinant human IP-10. The test is described as follows: competition ELISA on coated human IP-10, competitor: biotinylated MuAIP13; Exp. C.
In test [25] the target is T1, recombinant human IP-10. The test is described as follows: competition ELISA on coated human IP-10; Exp. B. This is another data set of the same source.

Changes are numbered by the printed parent chain. Names may count otherwise. “And” between values parts separate entries of the source, which are not always exact repeats. Identical values can stand only once.

B1: HuAIP12 G104A variant antibody (antibody, human IgG1, V domains shown)
VH: EVQLVQSGAEVKKPGATVKISCKVSGYTFTDYSMHWVRQAPGKGLKWMGWINTETGEPTYADDFKGRFTFTLDTSTSTAYMELSSLRSEDTAVYYCARNYDYDAYFDVWGQGTTVTVSS
VL: DIQMTQSPSSLSASVGDRVTITCKASQDINKYIAWYQQKPGKAPKLLIHYTSTLQPGIPSRFSGSGSGRDYTFTISSLQPEDIATYYCLQYDNLLFTFGQGTKLEIK
notes: Human IgG1/kappa (gamma-1 and kappa expression vectors), transiently expressed in 293-H cells
For B1, in [1], the “fold faster off-rate (kd) against unmodified HuAIP12” value was around 2 fold, the “fold higher Kd against unmodified HuAIP12” value was above 20 fold, the “fold slower on-rate (ka) against unmodified HuAIP12” value was around 10 fold and the “fold weaker monovalent interaction against unmodified HuAIP12” value worked out at 20 fold. In addition, in test [2], the Kd – broadly, the equilibrium constant for the complex coming apart – turned out to be 5.98 nM; the koff (commonly a measure of how fast the partners let go of each other) was determined as 0.000784 s⁻¹; the kon – broadly, a measure of how fast the partners come together – was 131000 M⁻¹ s⁻¹. Besides, in test [3], the IC50 (commonly the concentration at which inhibition is half-maximal) turned out to be 59.5 µg/mL and the “fold decrease in binding affinity against unmodified HuAIP12” value is 14.5 fold.

B2: HuAIP12 T55I variant antibody (antibody, V domains shown)
VH: B1 VH with T55I, A104G
VL: B1 VL
For the molecule B2, in [1], the “fold slower off-rate against unmodified HuAIP12” value was around 9 fold and the “fold stronger affinity against unmodified HuAIP12” value was above 9 fold. In addition, in [2], the Kd came out at 0.0269 nM, the koff was found to be 4.67e-05 s⁻¹ and the kon was determined as 1.66e+06 M⁻¹ s⁻¹. For the same molecule, the half-maximal inhibitory concentration (IC50) in test [3] came to 1.6 µg/mL.

B3: 13H+12L antibody (antibody, V domains shown)
VH: B1 VH with T55I
VL: B1 VL
notes: HuAIP13 heavy chain with HuAIP12 light chain; human gamma-1/kappa
Regarding B3, the IC50 in test [3] amounted to 13.6 µg/mL.

B4: 12H+13L antibody (antibody, V domains shown)
VH: B1 VH with A104G
VL: B1 VL with S26D, I48L, Y50H, N93S
notes: HuAIP12 heavy chain with HuAIP13 light chain; human gamma-1/kappa
For B4, in [3], the IC50 turned out to be 3 µg/mL.

B5: humanized monoclonal antibody HuAIP12 (antibody, human IgG1, V domains shown)
VH: B1 VH with A104G
VL: B1 VL
notes: Human IgG1/kappa; also called unmodified HuAIP12; Wild Type
On to B5, for which the “IC50 of inhibition of IP-10 mediated chemotaxis” value in test [4] was around 0.1 µg/mL. Moreover, the IC50 in [5] is 14.5 µg/mL; in test [8], 10.7 µg/mL; in test [3], 3.1 µg/mL and 4.1 µg/mL; in [13], 13.5 µg/mL; in test [16], 18.6 µg/mL; in test [17] it was 10.3 µg/mL. Also, the “fold difference of IC50 against MuAIP12” value was found to be 2.4 fold in test [6]; 2.4 fold in test [9]; 2.9 fold in [11]; 2.5 fold in test [12]; 2.2 fold in test [14]. The “fold higher binding affinity than HuAIP13” value in [7] was around 2.6 fold. Also, the Kd in test [2] came to 0.251 nM; in test [15], 0.472 nM. The koff was 0.000381 s⁻¹ in test [2] and 0.000357 s⁻¹ in test [15]. Also, the kon is 1.55e+06 M⁻¹ s⁻¹ in [2] and 755000 M⁻¹ s⁻¹ in test [15]. Further, the “inhibition of chemotaxis (IC50%) on recombinant IP-10, donor 215” value (“inhibition of chemotaxis (IC50%) … donor 215” for short) in test [10] was found to be 0.142 µg/mL. In addition, in test [10], the “inhibition of chemotaxis (IC50%) on recombinant IP-10, donor 318” value (“inhibition of chemotaxis (IC50%) … donor 318” below) came out at 0.038 µg/mL. The “inhibition of chemotaxis (IC50%) on recombinant IP-10, donor 1012” value (shortened to “inhibition of chemotaxis (IC50%) … donor 1012”) in [10] came to 0.073 µg/mL. Moreover, in test [10], the “inhibition of chemotaxis (IC50%) on recombinant IP-10, mean of donors” value (from here on “inhibition of chemotaxis (IC50%) … of donors”) was found to be 0.086 µg/mL.

B6: humanized monoclonal antibody HuAIP13 (antibody, human IgG1, V domains shown)
VH: B1 VH with T55I
VL: B1 VL with S26D, I48L, Y50H, N93S
notes: Human IgG1/kappa
With B6, the IC50 in [18] is 6.1 µg/mL; in test [20], 5.8 µg/mL; in test [3], 9.2 µg/mL; in [23], 6.5 µg/mL; in test [24] it was 4.8 µg/mL. The “IC50 of inhibition of IP-10 mediated chemotaxis” value in [4] is around 0.1 µg/mL. For the same molecule, the “fold difference of IC50 against MuAIP13” value in test [19] is 2.8 fold; in test [21], 2.7 fold; in test [22], 2.9 fold; in test [25], 2.7 fold. Also, the “inhibition of chemotaxis (IC50%) … donor 215” value in test [10] worked out at 0.139 µg/mL. Further, the “inhibition of chemotaxis (IC50%) … donor 318” value in test [10] was found to be 0.045 µg/mL. Also, the “inhibition of chemotaxis (IC50%) … donor 1012” value in test [10] turned out to be 0.077 µg/mL. Moreover, the “inhibition of chemotaxis (IC50%) … of donors” value in [10] was determined as 0.086 µg/mL. Besides, the Kd in [15] stood at 1.24 nM. Also, in [15], the koff turned out to be 0.000194 s⁻¹. Moreover, the kon in test [15] is 156000 M⁻¹ s⁻¹.

B7: murine monoclonal antibody AIP12 (antibody, V domains shown)
VH: QIQLVQSGPELKKPGETVKISCKASGYTFTDYSMHWVKQAPGKGLKWMGWINTETGEPTYADDFKGRFAFSLETSASTAYLQINNLKNEDTATYFCARNYDYDGYFDVWGAGTTVTVSS
VL: DIQMTQSPSSLSASLGGKVTITCKASQDINKYIAWYQHKPGKGPRLLIHYTSTLQPGIPSRFSGSGSGRDYSFSISNLEPEDIATYYCLQYDNLLFTFGSGTKLEIK
notes: Mouse hybridoma antibody; also called MuAIP12
As to B7, the half-inhibitory concentration (IC50) in test [5] stood at 6.6 µg/mL. Moreover, in test [8], the half-maximal inhibitory concentration (IC50) came out at 4.4 µg/mL. In test [10], the “inhibition of chemotaxis (IC50%) … donor 215” value worked out at 0.13 µg/mL; the “inhibition of chemotaxis (IC50%) … donor 318” value came out at 0.041 µg/mL; the “inhibition of chemotaxis (IC50%) … donor 1012” value turned out to be 0.091 µg/mL; the “inhibition of chemotaxis (IC50%) on recombinant IP-10, donor 1022” value was 0.135 µg/mL and 0.051 µg/mL and 0.086 µg/mL. For the same molecule, the “inhibition of chemotaxis (IC50%) … of donors” value in test [10] was 0.089 µg/mL. Further, the IC50 in [13] amounted to 5.4 µg/mL. In test [15], the dissociation constant (Kd) came out at 0.275 nM, the koff was 0.000282 s⁻¹ and the on-rate (kon) came out at 1.05e+06 M⁻¹ s⁻¹. In [16], the IC50 was found to be 6.5 µg/mL. The half-maximal inhibitory concentration (IC50) in test [17] was 4.2 µg/mL.

B8: murine monoclonal antibody AIP13 (antibody, V domains shown)
VH: B7 VH with T55I, G104A
VL: B7 VL with S26D, K42R, I48L, Y50H, E81A, N93S
notes: Mouse hybridoma antibody; Mouse IgG1/kappa was used as its isotype control; also called MuAIP13
Consider B8, for which, in test [18], the IC50 worked out at 2.1 µg/mL. In test [20], the IC50 was found to be 2.1 µg/mL. For the same molecule, in [10], the “inhibition of chemotaxis (IC50%) … donor 215” value came to 0.26 µg/mL; the “inhibition of chemotaxis (IC50%) … donor 318” value was 0.139 µg/mL; the “inhibition of chemotaxis (IC50%) … donor 1012” value stood at 0.084 µg/mL; the “inhibition of chemotaxis (IC50%) on recombinant IP-10, donor 1022” value was 0.229 µg/mL and 0.154 µg/mL and 0.078 µg/mL. The “inhibition of chemotaxis (IC50%) … of donors” value in [10] was 0.157 µg/mL. Besides, the IC50 in test [23] came to 2.4 µg/mL. Besides, the concentration for half-maximal inhibition (IC50) in test [24] came out at 1.8 µg/mL. Besides, in test [15], the Kd is 1.24 nM, the koff is 0.000196 s⁻¹ and the kon is 158000 M⁻¹ s⁻¹.

Source of the values: patent EP1708961B1 (Abbott Biotherapeutics Corp., dated 2011).
